For test [1], the target named is T1, recombinant human ROR2 H349R (human, UniProt Q01974 34-403).
T1 construct: Human residue replaced with the mouse residue
Put plainly: dot blot on nylon membrane, anti-human IgG-HRP.

Test [2] concerns the target recombinant human ROR2 D354E (human, UniProt Q01974 34-403). The experiment in a line: dot blot on nylon membrane, anti-human IgG-HRP.
Another test concerns the target recombinant ROR1 (Homo sapiens (Human), UniProt Q01973 30-406). The experiment in a line: dot blot on nylon membrane, anti-human IgG-HRP.
For test [3], the target named is T2, recombinant mouse ROR2 (extracellular portion) (mouse, UniProt Q9Z138 34-403).
T2 construct: also called mROR2
Put plainly: dot blot on nylon membrane, anti-human IgG-HRP.

Test [4] deals with T3, human ROR2 (human, UniProt Q01974 34-403, limits assumed). The experiment in a line: SPR. The gist of the method: (§1)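 Humanized monoclonal antibodies against human ROR2, made by transferring murine complementarity-determining regions into human acceptor frameworks with the constant region switched to human IgG1, were assessed by surface plasmon resonance. Their affinity for human ROR2 is expressed as the dissociation constant (Kd) in nM.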
A general note: Surface plasmon resonance follows binding to a sensor surface in real time, without labels.

The target of test [5] is T3, human ROR2. The experiment in a line: SPR. The gist of the method: as §1
The source holds these as a separate data set.

Read-outs that look alike come from different tables or passages of the source.

Chain of recombinant ROR1 (Q01973 30-406 limits assumed): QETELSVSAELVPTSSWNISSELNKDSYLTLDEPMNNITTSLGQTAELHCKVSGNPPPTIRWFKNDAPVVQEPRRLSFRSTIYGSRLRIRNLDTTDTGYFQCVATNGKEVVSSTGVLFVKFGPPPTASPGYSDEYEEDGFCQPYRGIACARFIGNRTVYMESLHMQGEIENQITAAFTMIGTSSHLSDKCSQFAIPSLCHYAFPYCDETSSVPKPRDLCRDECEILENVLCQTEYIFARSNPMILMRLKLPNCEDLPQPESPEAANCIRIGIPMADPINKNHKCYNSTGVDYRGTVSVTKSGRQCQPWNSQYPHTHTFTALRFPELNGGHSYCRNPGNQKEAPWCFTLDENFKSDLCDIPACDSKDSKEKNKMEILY
T3 sequence (Q01974 34-403 limits assumed): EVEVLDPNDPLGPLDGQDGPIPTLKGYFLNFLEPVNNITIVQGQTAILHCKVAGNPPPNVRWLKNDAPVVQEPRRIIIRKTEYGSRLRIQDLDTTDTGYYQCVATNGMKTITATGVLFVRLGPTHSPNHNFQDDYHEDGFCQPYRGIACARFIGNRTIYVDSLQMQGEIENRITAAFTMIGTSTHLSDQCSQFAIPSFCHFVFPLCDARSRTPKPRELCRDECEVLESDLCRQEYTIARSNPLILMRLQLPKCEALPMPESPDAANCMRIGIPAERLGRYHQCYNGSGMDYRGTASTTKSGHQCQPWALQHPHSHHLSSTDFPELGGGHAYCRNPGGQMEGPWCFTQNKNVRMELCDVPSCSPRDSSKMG
T2 sequence (Q9Z138 other isoform, or with tags, fused parts or gaps limits assumed): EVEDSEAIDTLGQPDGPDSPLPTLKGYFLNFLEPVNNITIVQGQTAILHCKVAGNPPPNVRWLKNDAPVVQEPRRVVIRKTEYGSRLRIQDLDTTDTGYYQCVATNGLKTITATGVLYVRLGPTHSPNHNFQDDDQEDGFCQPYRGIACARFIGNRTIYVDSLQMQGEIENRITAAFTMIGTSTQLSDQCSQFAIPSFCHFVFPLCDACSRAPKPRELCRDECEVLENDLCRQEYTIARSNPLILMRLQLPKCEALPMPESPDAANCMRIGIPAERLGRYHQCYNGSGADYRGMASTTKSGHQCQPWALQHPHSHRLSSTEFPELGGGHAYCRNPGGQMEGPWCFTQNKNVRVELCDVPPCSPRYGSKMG
Chain of recombinant human ROR2 D354E (Q01974 34-403 D354E limits assumed): as the sequence (Q01974 34-403 limits assumed) above, with D321E counted along it
T1 sequence (Q01974 34-403 H349R limits assumed): as the sequence (Q01974 34-403 limits assumed) above, with H316R counted along it

B1: h6E6-007 (antibody, human IgG1, V domains shown)
VH: EVQLVESGGGLVKPGGSLRLSCAASGFTFSGYGLSWVRQAPGKGLEWVSTISSGGGYTHYAPSVKGRFTISRDNAKNSLYLQMNSLRAEDTAVYYCARHPRDFSYAQDYWGQGTTVTVSS
VL: EIVMTQSPATLSVSPGERATLSCKASQDVGHYVAWYQQKPGQAPRLLIYWASTRATGIPARFSGSGSGTEFTLTISSLQSEDFAVYYCQQYNIYPWTFGQGTKVEIK
notes: human IgG1; also called clone 7
In the case of B1, the binding result (in test [1]; in test [2]; with recombinant ROR1; in test [3]) was “no binding” each time. The dissociation constant (Kd) with human ROR2 [4] and with human ROR2 [5] was 318 pM throughout.

B2: h6E6-066 (antibody, human IgG1, V domains shown)
VH: EVQLVESGGGLVKPGGSLRLSCAASGFTFSAYGSSWVRQAPGKGLEWVSTISSGGGYTHYAPSVKGRFTISRDNAKNSLYLQMNSLRAEDTAVYYCARHPRDFSYAHDYWGQGTTVTVSS
VL: EIVMTQSPATLSVSPGERATLSCKASQDVGHYVAWYQQKPGQAPRLLIYWASTRHTGIPARFSGSGSGTEFTLTISSLQSEDFAVYYCQQYNIYPWTFGQGTKVEIK
notes: human IgG1; also called clone 66
B2: the binding result (in test [1]; in test [2]; in the test with recombinant ROR1; in test [3]) was “no binding” each time. Also, the Kd with human ROR2 [4] and in the test with human ROR2 [5] was 353 pM in each case.

B3: h6E6-056 (antibody, human IgG1, V domains shown)
VH: EVQLVESGGGLVKPGGSLRLSCAASGFTFSKYGTSWVRQAPGKGLEWVSTISSGGGYTHYAPSVKGRFTISRDNAKNSLYLQMNSLRAEDTAVYYCARHPRDFSYAQDYWGQGTTVTVSS
VL: EIVMTQSPATLSVSPGERATLSCRASQDVGHYVAWYQQKPGQAPRLLIYWASTRATGIPARFSGSGSGTEFTLTISSLQSEDFAVYYCQQYNIYPWTFGQGTKVEIK
notes: human IgG1; also called clone 56
Consider B3, for which the binding result (in test [1]; in test [2]; in the test with recombinant ROR1; in test [3]) was “no binding” each time. In addition, the Kd with human ROR2 [4] and with human ROR2 [5] was 24 pM each time.

B4: h6E6-107 (antibody, human IgG1, V domains shown)
VH: EVQLVESGGGLVKPGGSLRLSCAASGFTFSTYGASWVRQAPGKGLEWVSTISSGGGYTHYAPSVKGRFTISRDNAKNSLYLQMNSLRAEDTAVYYCARHPRDFSYALDYWGQGTTVTVSS
VL: EIVMTQSPATLSVSPGERATLSCKASQDVGHYVAWYQQKPGQAPRLLIYWASTRATGIPARFSGSGSGTEFTLTISSLQSEDFAVYYCQQYNIYPWTFGQGTKVEIK
notes: human IgG1; also called clone 107
As for B4, the binding result (in test [1]; in test [2]; with recombinant ROR1; in test [3]) was “no binding” in each case. The dissociation constant Kd with human ROR2 [4] and in the test with human ROR2 [5] was 422 pM in each case.

B5: h6E6-072 (antibody, human IgG1, V domains shown)
VH: EVQLVESGGGLVKPGGSLRLSCAASGFTFSQYGHSWVRQAPGKGLEWVSTISSGGGYTHYADSVKGRFTISRDNAKNSLYLQMNSLRAEDTAVYYCARHPRDFSYAQDYWGQGTTVTVSS
VL: EIVMTQSPATLSVSPGERATLSCKASQDVGHYLAWYQQKPGQAPRLLIYWASTRHTGIPARFSGSGSGTEFTLTISSLQSEDFAVYYCQQYNIYPWTFGQGTKVEIK
notes: human IgG1; also called clone 72
Take B5: the binding result (in test [1]; in test [2]; with recombinant ROR1; in test [3]) was “no binding” in each case. Moreover, the equilibrium dissociation constant (Kd) with human ROR2 [4] and in the test with human ROR2 [5] was 380 pM in each case.

B6: h6E6-055 (antibody, human IgG1, V domains shown)
VH: EVQLVESGGGLVKPGGSLRLSCAASGFTFSQYGHSWVRQAPGKGLEWVSTISSGGGYTHYAESVKGRFTISRDNAKNSLYLQMNSLRAEDTAVYYCARHPRDFSYAQDYWGQGTTVTVSS
VL: EIVMTQSPATLSVSPGERATLSCKASQDVGHYLAWYQQKPGQAPRLLIYWASTRATGIPARFSGSGSGTEFTLTISSLQSEDFAVYYCQQYNIYPWTFGQGTKVEIK
notes: human IgG1; also called clone 55
Take B6: the binding result (in test [1]; in test [2]; with recombinant ROR1; in test [3]) was “no binding” throughout. The equilibrium dissociation constant (Kd) with human ROR2 [4] and with human ROR2 [5] was 261 pM in each case.

B7: h6E6-077 (antibody, human IgG1, V domains shown)
VH: EVQLVESGGGLVKPGGSLRLSCAASGFTFSHYGTSWVRQAPGKGLEWVSTISSGGGYTHYAPSVKGRFTISRDNAKNSLYLQMNSLRAEDTAVYYCARHPRDFSYAIDYWGQGTTVTVSS
VL: EIVMTQSPATLSVSPGERATLSCKASQDVGHYVAWYQQKPGQAPRLLIYWASTRATGIPARFSGSGSGTEFTLTISSLQSEDFAVYYCQQYNIYPWTFGQGTKVEIK
notes: human IgG1; also called clone 77
Turning to B7, the binding result (in test [1]; in test [2]; in the test with recombinant ROR1; in test [3]) was “no binding” in each case. Moreover, the Kd with human ROR2 [4] and in the test with human ROR2 [5] was 155 pM throughout.

B8: h6E6-116 (antibody, human IgG1, V domains shown)
VH: EVQLVESGGGLVKPGGSLRLSCAASGFTFSTYGVSWVRQAPGKGLEWVSTISSGGGYTHYAGSVKGRFTISRDNAKNSLYLQMNSLRAEDTAVYYCARHPRDFSYALDYWGQGTTVTVSS
VL: EIVMTQSPATLSVSPGERATLSCRASQDVGHYLAWYQQKPGQAPRLLIYWASTRATGIPARFSGSGSGTEFTLTISSLQSEDFAVYYCQQYNIYPWTFGQGTKVEIK
notes: human IgG1; Alexa647 conjugate in flow cytometry
As for B8, the binding result (in test [1]; in test [2]; in the test with recombinant ROR1; in test [3]) was “no binding” in each case. The equilibrium dissociation constant (Kd) with human ROR2 [4] and with human ROR2 [5] was 348 pM in each case.

B9: h6E6-040 (antibody, human IgG1, V domains shown)
VH: EVQLVESGGGLVKPGGSLRLSCAASGFTFSSYGHSWVRQAPGKGLEWVSTISSGGGYTHYAPSVKGRFTISRDNAKNSLYLQMNSLRAEDTAVYYCARHPRDFSYAHDYWGQGTTVTVSS
VL: EIVMTQSPATLSVSPGERATLSCRASQDVGHYVAWYQQKPGQAPRLLIYWASTRATGIPARFSGSGSGTEFTLTISSLQSEDFAVYYCQQYNIYPWTFGQGTKVEIK
notes: human IgG1; also called clone 40
As for B9, the binding result (in test [1]; in test [2]; with recombinant ROR1; in test [3]) was “no binding” each time. Moreover, the dissociation constant Kd with human ROR2 [4] and with human ROR2 [5] was 186 pM throughout.

B10: h6E6-057 (antibody, human IgG1, V domains shown)
VH: EVQLVESGGGLVKPGGSLRLSCAASGFTFSHYGVSWVRQAPGKGLEWVSTISSGGGYTHYVASVKGRFTISRDNAKNSLYLQMNSLRAEDTAVYYCARHPRDFSYALDYWGQGTTVTVSS
VL: EIVMTQSPATLSVSPGERATLSCKASQDVGHYVAWYQQKPGQAPRLLIYWASTRATGIPARFSGSGSGTEFTLTISSLQSEDFAVYYCQQYNIYPWAFGQGTKVEIK
notes: human IgG1; also called clone 57
Take B10: the binding result (in test [1]; in test [2]; in the test with recombinant ROR1; in test [3]) was “no binding” throughout. The Kd with human ROR2 [4] and with human ROR2 [5] was 463 pM in each case.

B11: h6E6-102 (antibody, human IgG1, V domains shown)
VH: EVQLVESGGGLVKPGGSLRLSCAASGFTFSKYGLSWVRQAPGKGLEWVSTISSGGGYTHYVESVKGRFTISRDNAKNSLYLQMNSLRAEDTAVYYCARHPRDFSYASDYWGQGTTVTVSS
VL: EIVMTQSPATLSVSPGERATLSCKASQDVGHYVAWYQQKPGQAPRLLIYWASTRATGIPARFSGSGSGTEFTLTISSLQSEDFAVYYCQQYNIYPWTFGQGTKVEIK
notes: human IgG1; also called clone 102
In the case of B11, the binding result (in test [1]; in test [2]; with recombinant ROR1; in test [3]) was “no binding” in each case. Moreover, the dissociation constant (Kd) with human ROR2 [4] and with human ROR2 [5] was 319 pM throughout.

B12: h6E6-068 (antibody, human IgG1, V domains shown)
VH: EVQLVESGGGLVKPGGSLRLSCAASGFTFSSYGISWVRQAPGKGLEWVSTISSGGGYTHYAHSVKGRFTISRDNAKNSLYLQMNSLRAEDTAVYYCARHPRDFSYALDYWGQGTTVTVSS
VL: EIVMTQSPATLSVSPGERATLSCKASQDVGHYLAWYQQKPGQAPRLLIYWASTRATGIPARFSGSGSGTEFTLTISSLQSEDFAVYYCQQYNIYPWTFGQGTKVEIK
notes: human IgG1; also called clone 68
Regarding B12, the binding result (in test [1]; in test [2]; with recombinant ROR1; in test [3]) was “no binding” each time. Besides, the dissociation constant (Kd) in the test with human ROR2 [4] and with human ROR2 [5] was 362 pM in each case.

B13: h6E6-029 (antibody, human IgG1, V domains shown)
VH: EVQLVESGGGLVKPGGSLRLSCAASGFTFSHYGVSWVRQAPGKGLEWVSTISSGGGYTHYAQSVKGRFTISRDNAKNSLYLQMNSLRAEDTAVYYCARHPRDFSYAQDYWGQGTTVTVSS
VL: EIVMTQSPATLSVSPGERATLSCKASQDVGHYVAWYQQKPGQAPRLLIYWASTRHTGIPARFSGSGSGTEFTLTISSLQSEDFAVYYCQQYNIYPWTFGQGTKVEIK
notes: human IgG1; also called clone 29
B13: the binding result (in test [1]; in test [2]; with recombinant ROR1; in test [3]) was “no binding” in each case. The dissociation constant (Kd) in the test with human ROR2 [4] and in the test with human ROR2 [5] was 79 pM each time.

In general, Kd refers to the constant that tells how readily two partners part at equilibrium. Higher therefore signals a looser complex.

The values are drawn from patent US20260209348A1 (University of California, published 2026).
